To fix the notation:
B1: E9-SE7 (antibody, V domains shown)
VH: EVQLVESGGGLVQPGGSLRLSCAVSGGSISSSSYYWGWIRQAPGKGLEWIGDIYYTGSTYYNPSLKSRVTISVDTSKNSFYLQMNSLRAEDTAVYYCAREDVILRGGSDYWGQGTLVTVSS
VL: EYVLTQSPDFQSVTPKEKVTITCSGQRLGDKYASWYQQKPDQSPKLVIYEDSKRPSGVPSRFSGSNSGDDATLTINSLEAEDAATYYCQAWDRDTGVFGQGTKVEIKR
B2: E9-SE2 (antibody, V domains shown)
VH: B1 VH
VL: SYELTQPPSVSVSPGQTASITCSGQRLGDKYASWYQQKPGQSPVLVIYEDSKRPSGIPERFSGSNSGDTATLTISGTQPMDEADYYCQAWDRDTGVFGYGTRVTVLG
B3: E9-SE8 (antibody, V domains shown)
VH: EVQLQESGPGLVKPGETLSLTCTVSGGSISSSSYYWGWIRQAPGKGLEWIGDIYYTGSTYYNPSLKSRVTISVDTSKNQFYLKLSSVRAEDTAVYYCAREDVILRGGSDYWGQGTLVTVSS
VL: B1 VL
B4: E9-SE5 (antibody, V domains shown)
VH: B3 VH with G15S, A42P, Y81S, R88T, E90A
VL: B1 VL
B5: E9-SE1 (antibody, V domains shown)
VH: B1 VH
VL: B2 VL with S1L, E3V, P79T, Y86L, Y99G, R102K
B6: E9-SE6 (antibody, V domains shown)
VH: B3 VH
VL: B2 VL with S1L, E3V, P79T, Y86L, Y99G, R102K
B7: E9-SE4 (antibody, V domains shown)
VH: B3 VH with G15S, A42P, Y81S, R88T, E90A
VL: B2 VL with S1L, E3V, P79T, Y86L, Y99G, R102K
B8: E9-SE3 (antibody, V domains shown)
VH: B3 VH
VL: B2 VL
B9: A10 (antibody, IgG1, V domains shown)
VH: EVQLLESGGGLVKSGGSLRLSCAASGFTFRSHWMSWVRQAPGKGLEWVAIISYDGSNKYSADSVKGRFTISRDNSKNTLYLQLNSLRAEDTAVYYCAKAGGGNVGFDIWGQGTMVTVSS
VL: LPVLTQPPSVSVSPGQTASITCSADKLGTKYVSWYQQKPGQSPVLVIYQDAKRPSGIPERFSGSNSGNTATLTISGTQTMDEADYLCQSWDRSDVVFGGGTKVTVL
B10: E9.19 (antibody, V domains shown)
VH: B3 VH with G15S, A42P, Y81S, R88T, E90A, E100F, I103S, R105G, Y110T
VL: SYELTQPPSVSVSPGQTASITCSGQRLGDKYASWYQQKPGQSPVLVIYEDSKRPSGIPERFSGSNSGDTATLTISGTQPMDEADYYCQAWDRDTGVFGYGTKVTVL
B11: E9 (antibody, IgG1, V domains shown)
VH: B3 VH with G15S, A42P, Y81S, R88T, E90A
VL: B10 VL with K102R
B12: E9.2B (antibody, V domains shown)
VH: EVQLQESGPGLVKPSETLSLTCTVSGGSISSSNYYWGWIRQPPGKGLEWIGDINYNGNTYYNPSLKSRVTISVDTSKNQFSLKLSSVTAADTAVYYCAREAVALGGGADDWGQGTLVTVSS
VL: B10 VL with Q25E, R26G, A32V, K52T, R92S, D93E, Y99S
B13: E9.71 (antibody, V domains shown)
VH: B12 VH with N33S, N54Y, N56T, N58S, E100Q, V102L, L104M, A108S, D110K
VL: B10 VL
B14: E9-FR1 (antibody, V domains shown)
VH: EVQLVQSGTEVKKPGESLKISCKVSGGSISSSSYYWGWIRQMPGKGLEWIGDIYYTGSTYYNPSLKSQVTISVDTSFNTFFLQWSSLKASDTAMYYCAREDVILRGGSDYWGQGTMVTVSS
VL: EYVLTQSPATLSVSPGERATLSCSGQRLGDKYASWYQQKPGQSPRLVIYEDSKRPSDIPARFSGSNSGDEATLTISSLQSEDFAVYYCQAWDRDTGVFGQGTRLEIKR
B15: E9.4 (antibody, V domains shown)
VH: B3 VH with G15S, A42P, Y81S, R88T, E90A, E100Y, I103S, R105G, G107S, Y110H
VL: B10 VL
B16: E9.13 (antibody, V domains shown)
VH: B3 VH with G15S, A42P, Y81S, R88T, E90A
VL: B10 VL with Q25D, R26T, A32V, K52E, R92S, D93E, Y99S
B17: E9.66 (antibody, V domains shown)
VH: B12 VH with N33S, N54Y, N56T, N58S, A101G, A103P, D110K
VL: B10 VL
B18: E9.16 (antibody, V domains shown)
VH: B3 VH with G15S, A42P, Y81S, R88T, E90A
VL: B10 VL with Q25E, A32V, S51F
B19: E9.18 (antibody, V domains shown)
VH: B3 VH with G15S, S33G, A42P, Y54N, T56A, Y81S, R88T, E90A
VL: B10 VL
B20: E9.38 (antibody, V domains shown)
VH: B3 VH with G15S, A42P, Y81S, R88T, E90A
VL: B10 VL with A32V, T94V, Y99S
B21: E9.17 (antibody, V domains shown)
VH: B3 VH with G15S, A42P, Y81S, R88T, E90A, D101E, V102A, R105G
VL: B10 VL
B22: E9.14 (antibody, V domains shown)
VH: B3 VH with G15S, S31N, S33R, Y35H, A42S, Y81S, R88T
VL: B10 VL
B23: E9.22 (antibody, V domains shown)
VH: B3 VH with G15S, S31N, S33R, Y35H, A42P, S67G, Y81S, R88T, E90A
VL: B10 VL
B24: E9.48 (antibody, V domains shown)
VH: B3 VH with G15S, S33G, A42P, Y54N, T56R, Y81S, R88T, E90A
VL: B10 VL
B25: E9.65 (antibody, V domains shown)
VH: B3 VH with G15S, S30R, S31N, S33R, Y35H, A42P, S67G, Y81S, R88T, E90A
VL: B10 VL
B26: E9.11 (antibody, V domains shown)
VH: B12 VH with N33S, N54Y, N56T, N58S, A103P, A108S, D110Y
VL: B10 VL

The results in this text go back to patent US20200255508A1.

Where a chain is given by its changes, count along the chain named.

In one experiment the target is cyno DLL4-his (cynomolgus monkey). In words: ELISA on DLL4-his.
In turn, B1 showed an EC50 of 120 pM.
For B2, the EC50 worked out at 140 pM.
The same measure, in the same setting: with B3 the figure was 140 pM; with B4, 130 pM.
The same measure, in the same setting: with B5 the figure was 140 pM; with B6, 130 pM.
Molecule B7 returned an EC50 of 140 pM.
On to B8, for which the EC50 was 140 pM.

For another experiment, the target named is cynomolgus monkey DLL4 extracellular domain (cynomolgus monkey). The experiment in a line: competition ELISA, competitor huNotch-1.
In the case of B9, the IC50 was 5100 pM.
In turn, B10 displayed an IC50 of 1500 pM.
As to B11, the IC50 stood at 2100 pM.
Same read-out and setting: with B12 the figure was 2200 pM; with B13, 2000 pM.

The target of another experiment is cyno DLL4-his (cynomolgus monkey). The experiment in a line: ELISA on DLL4-his. The source holds these as a separate data set.
B14 had an EC50 of 120 pM.

The next experiment concerns the target cynomolgus monkey DLL4 extracellular domain (cynomolgus monkey). In words: capture ELISA.
For B9, the EC50 was determined as 440 pM.
Same read-out and setting: the same measure for B10: 460 pM; for B11: 400 pM.
On the same count and under the same terms, the same measure for B12: 450 pM.
The same measure, in the same setting: with B13 the figure was 440 pM.

A further experiment shares this target. The experiment in a line: Biacore SPR.
With B14, the dissociation constant Kd was 740 pM.

For a further experiment the target is unchanged. In words: Biacore SPR. This is another data set of the same source.
In turn, B9 registered a Kd of 7800 pM, an off-rate (koff) of 0.00015 s⁻¹ and a kon of 19000 M⁻¹ s⁻¹.
Regarding B1, the dissociation constant (Kd) turned out to be 7530 pM.
In turn, B2 displayed a Kd of 3680 pM.
The same measure, in the same setting: with B3 the figure was 3410 pM; with B4, 6700 pM.
B5 had an equilibrium dissociation constant (Kd) of 5420 pM.
Regarding B15, the Kd was 250 pM, the koff was determined as 3.44e-05 s⁻¹ and the kon is 137000 M⁻¹ s⁻¹.
In turn, B6 came in with a Kd of 6550 pM.
B16 gave a Kd of 630 pM, a koff of 4.95e-05 s⁻¹ and a kon of 79200 M⁻¹ s⁻¹.
B17: the Kd came out at 140 pM, the koff came to 9.1e-06 s⁻¹ and the kon came out at 65500 M⁻¹ s⁻¹.
In the same order, the values of B10 are 250 pM, 4.86e-05 s⁻¹ and 192000 M⁻¹ s⁻¹.
In the same order, the values of B18 are 1520 pM, 3.79e-05 s⁻¹ and 24900 M⁻¹ s⁻¹.
With B11, the equilibrium dissociation constant (Kd) worked out at 4200 pM, the koff was found to be 7.4e-05 s⁻¹ and the kon was found to be 18000 M⁻¹ s⁻¹.
B19 came in with a Kd of 1000 pM, a dissociation rate constant (koff) of 2.63e-05 s⁻¹ and a kon of 26300 M⁻¹ s⁻¹.
For B20 the same measures were 1440 pM, 3.47e-05 s⁻¹ and 24200 M⁻¹ s⁻¹.
In the case of B7, the Kd came to 3920 pM.
Turning to B21, the Kd was 160 pM, the koff stood at 1.23e-05 s⁻¹ and the on-rate constant (kon) was 75100 M⁻¹ s⁻¹.
B13 yielded a Kd of 490 pM, a koff of 3.79e-05 s⁻¹ and a kon of 77500 M⁻¹ s⁻¹.
B22: the Kd is 6750 pM, the koff came out at 0.000386 s⁻¹ and the kon came out at 57200 M⁻¹ s⁻¹.
For the molecule B23, the Kd amounted to 6260 pM, the koff worked out at 0.000352 s⁻¹ and the kon amounted to 56200 M⁻¹ s⁻¹.
B24: the Kd stood at 4710 pM, the koff was 7.91e-05 s⁻¹ and the kon is 16800 M⁻¹ s⁻¹.
In the same order, the values of B25 are 12900 pM, 0.000414 s⁻¹ and 32100 M⁻¹ s⁻¹.
Consider B26, for which the Kd stood at 170 pM, the koff came to 8.9e-06 s⁻¹ and the kon stood at 53100 M⁻¹ s⁻¹.
In the case of B8, the Kd amounted to 3420 pM.
